The text below walks through data of publication doi:10.1101/2024.03.05.583490.

For this assay, the target named is IR-Rluc (insulin receptor fused to Rluc) (UniProt P06213). Nature of the assay: FRET or BRET. Background: BRET reads energy transfer from a luciferase to a nearby fluorophore.

“IGF1R-YPET F450A (from UniProt P08069 31-1367) (receptor)” had a fold change in BRET50 against the wild type of 2 fold.
